Source: patent publication US20150050213A1, “COMPOSITIONS AND METHODS FOR IMAGING INFLAMMATION OF TRAUMATIC BRAIN INJURY” (University of Virginia Patent Foundation, priority 2013, published 2015)

Key:
[1] = reported; poor imaging quality due to lipophilicity; cited from earlier work
FPR = target: T1, FPR (Homo sapiens, UniProt P21462); conditions: human neutrophils; Locke et al. 2009; cited from earlier work
T1 construct: endogenous in cells; host or cells: human neutrophils
T1 sequence (P21462 1-350): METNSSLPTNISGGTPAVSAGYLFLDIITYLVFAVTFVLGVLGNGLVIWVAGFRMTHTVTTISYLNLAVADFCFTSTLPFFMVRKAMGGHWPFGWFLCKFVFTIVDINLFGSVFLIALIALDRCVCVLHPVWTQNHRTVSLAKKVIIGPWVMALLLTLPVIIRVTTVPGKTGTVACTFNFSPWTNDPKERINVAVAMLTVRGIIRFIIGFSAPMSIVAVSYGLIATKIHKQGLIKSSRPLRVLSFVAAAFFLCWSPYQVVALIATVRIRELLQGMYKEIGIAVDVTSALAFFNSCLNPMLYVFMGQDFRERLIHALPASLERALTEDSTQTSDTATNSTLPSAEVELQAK

[2] = target: T2, neutrophil N-formylpeptide receptor (Homo sapiens, UniProt P21462); conditions: reported in the literature; cited from earlier work
T2 sequence (P21462 1-350): T1 sequence (P21462 1-350)

[3] = target: T3, neutrophil receptor (formyl peptide receptor, FPR) (Homo sapiens, UniProt P21462); conditions: human neutrophils; Zhang et al. 2007; cited from earlier work
T3 construct: endogenous in cells; host or cells: human neutrophils
T3 sequence (P21462 1-350): T1 sequence (P21462 1-350)

[4] = mouse, in vivo; cited from earlier work
infiltrating neutrophils [5] = test system: infiltrating neutrophils; design: species or system Sprague-Dawley rats; conditions: rat, in vivo
Procedure: Sprague-Dawley rats (N=3/experimental group) underwent moderate-severe experimental controlled cortical impact (CCI) trauma brain injury (TBI) or SHAM preparation. Animals were sacrificed 12, 24, or 48 hours post-injury, a tail vein catheter was inserted 12 hr prior to sacrifice, and each animal received a 2 mCi dose of cFLFLF-PEG-^64Cu. Radiopharmaceutical was allowed to circulate for 12 hrs prior to sacrifice. Brains were removed and unfixed, […] frozen sections were collected on a Leica CM3050S cryostat. Sections were collected onto slides and placed on radiosensitive FujiFilm SR imaging plates for 12 hours. Each screen was read with a GE Typhoon FLA9000 phosphor imager at a pixel size of […]. Average intensity values from seven ROIs (FIG. 5B-5G) were measured from 20 brain sections that included the entirety of the contusion volume. Values were normalized to the corrected dose of radiation and animal body weight. Average intensity values of each ROI were compared to the contralateral anatomical region in each of the SHAM, 12, 24 hour, and 48 hour experimental groups. Phosphor imaging is a standard technique for determining whether a labeled ligand is suitable for PET imaging and positive results are an indicator that the labeled ligand is indeed useful for PET imaging.

neutrophils = conditions: superoxide stimulation assays; Locke et al.; cited from earlier work
infiltrating neutrophils [6] = assay: neutrophil co-localization immunohistochemistry after CCI TBI; type: in vivo; conditions: CCI TBI rats, 12 hours post-injury
Procedure: Neutrophil co-localization: Rats underwent CCI injury as described above and were immediately injected with cFLFLF-PEG-Cy5 through a tail vein catheter. Animals were sacrificed 12 hours post-injection and perfused with 200 cc of a 10% sucrose wash and 200 cc of 4% paraformaldehyde. After four hours, animals were perfused with a 30% sucrose cryoprotectant. Brains were then removed and sectioned at a thickness of […]. Sections were incubated in rabbit anti-rat neutrophil elastase (abcam 21595) at a dilution of 1:200 overnight at 4° C. Next, sections were washed three times in PBS and then incubated in alexa fluor 488 goat anti-rabbit antibody at a 1:200 dilution at room temperature for two hours. Sections were washed three times in PBS. Vectashield mounting medium with DAPI was applied to each section with a cover slip. Slides were assessed with a Zeiss Axioimager Z1 microscope equipped with the Apotome module. Photomicrographs were acquired using the Zeiss Zen 2011 software (FIG. 2).

Substance	liver uptake [1]	Kd (FPR)	affinity for the neutrophil N-formylpeptide receptor [2]	Kd [3]	mean biologic half-life [4]	post-injury time point of most prominent uptake (infiltrating neutrophils [5])	time of statistically significant peak uptake, ratio ipsilateral to contralateral, caudate and putamen (infiltrating neutrophils [5])	time of statistically significant peak uptake, ratio ipsilateral to contralateral, corpus callosum (infiltrating neutrophils [5])	time of statistically significant peak uptake, ratio ipsilateral to contralateral, cortex (infiltrating neutrophils [5])	time of statistically significant peak uptake, ratio ipsilateral to contralateral, hemisphere (infiltrating neutrophils [5])	time of statistically significant peak uptake, ratio ipsilateral to contralateral, hippocampus (infiltrating neutrophils [5])	uptake within cerebrospinal fluid (CSF) in the ventricles (infiltrating neutrophils [5])	biologic activity toward neutrophils (neutrophils)	co-localization with neutrophil markers (infiltrating neutrophils [6])
cF(D)LF(D)LF [cFLFLF]	high liver uptake	2 nM	high affinity	–	–	–	–	–	–	–	–	–	–	–
cinnamoyl-F(D)LF(D)LFK-polyethylene glycol-DOTA-64Cu [cFLFLF-PEG-^64Cu]	–	17.7 nM	–	5.7 nM	55±8 min	12 h	12 h	12 h	12 and 24 hour	12 h	12 h	intense uptake	no biologic activity toward neutrophils	–
cinnamoyl-F(D)LF(D)LFK-polyethylene glycol [cFLFLF-PEG]	–	–	–	–	–	–	–	–	–	–	–	–	–	localizes to infiltrating neutrophils within brain parenchyma
